# Biological target: HLA-A2 MHC class I molecule on the surface of the target cells (no C2 peptide added) (human)
substance,measurement,value
"TCR CMV-pp65-PE STAR multimer reagent (Soluble T-Cell Antigen Receptor STAR Multimer, Altor Bioscience)",Percentage of Positive Cells,0.96%
same,iMFI,70 RFU

# From patent publication US20210253648A1
